The Km is the substrate concentration at which the rate is half of its maximum. One may read the kcat as the maximal rate divided by the concentration of active sites. For orientation: kcat/Km means the turnover number divided by the Michaelis constant.

Experimental findings from PMC12363196, “High level of carbapenem resistance and transmission ability of blaIMP-26 in multidrug-resistant Enterobacter xiangfangensis isolates from China” (mSystems, 2025) are described below.

Common to all, as to test: purified protein
What all share (conditions): 50 mM HEPES pH 7.5, 250 mM NaCl, 100 µM ZnCl2, 37 °C, BSA 20 µg/mL in dilution buffer

Series [1] relates to CO/N=C(\C(=O)N[C@@H]1C(=O)N2C(C(=O)O)=C(COC(C)=O)CS[C@H]12)c1csc(N)n1.
Series [2] deals with CO/N=C(\C(=O)N[C@@H]1C(=O)N2C(C(=O)[O-])=C(C[N+]3(C)CCCC3)CS[C@H]12)c1csc(N)n1.
The subject of series [3] is CC(C)(O/N=C(\C(=O)N[C@@H]1C(=O)N2C(C(=O)[O-])=C(C[n+]3ccccc3)CS[C@H]12)c1csc(N)n1)C(=O)O.
Series [4] concerns C[C@@H](O)[C@H]1C(=O)N2C(C(=O)O)=C(SCCN=CN)C[C@H]12.
Series [5] deals with C[C@@H](O)[C@H]1C(=O)N2C(C(=O)O)=C(S[C@@H]3CN[C@H](C(=O)N(C)C)C3)[C@H](C)[C@H]12.

IMP-26 (Pseudomonas aeruginosa): the Km in series [1] came to 192.1 µM; in series [2], 497.1 µM; in series [3] it was 677.2 µM; in series [4], 932.6 µM; in series [5] it was 218.8 µM. Also, the kcat in series [1] came out at 31.92 s⁻¹; in series [2], 37.58 s⁻¹; in series [3], 38.86 s⁻¹; in series [4] it was 159.51 s⁻¹; in series [5] it was 75.08 s⁻¹. In addition, the kcat/Km came to 166000 M⁻¹ s⁻¹ in series [1]; 76000 M⁻¹ s⁻¹ in series [2]; 57000 M⁻¹ s⁻¹ in series [3]; 171000 M⁻¹ s⁻¹ in series [4]; 343000 M⁻¹ s⁻¹ in series [5].
